This sample holds only a part of the variants without activity.
B1: TPR 5TU (parent)
chain: GGAUCUUCUCGAUCUAACAAAAAAGACAAAUCUGCCACAAAGCUUGAGAGCAUCUUCGGAUGCAGAGGCGGCAGCCUUCGGUGGCGCGAUAGCGCCAACGUUCUCAACUAUGACACGCAAAACGCGUGCUCCGUUGAAUGGAGUUUAUCAUG

Variants of: B1
Assay: polymerase ribozyme fitness, log enrichment relative to wild type (log ratio); higher = more active; in vitro selection for triplet polymerase activity
Summary of the method: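 A single round of triplicate in vitro selection, including frozen incubation at −7 °C, was applied to PCR-built, transcribed mutant libraries of each subunit of a heterodimeric triplet polymerase ribozyme. Illumina sequencing of input and output libraries retained genotypes with ≥10 input reads and ≥1 read per output. Fitness is the base-2 logarithm of genotype enrichment divided by wild-type enrichment, from inverse-variance-weighted replicate averages.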

Variant	polymerase ribozyme fitness (log ratio)
A40U A106G	0.3
A41U A52C	-2.05
A41U A52U	-2.47
A41G U53G	-0.77
A41C C57G G136U	-3.64
A40U U61A A107U G128U U151C	≤ -4.2
A41C G59C U82C G86C C108G G141U	≤ -4.2
A40G G58C C87A C103G A110U U135A	≤ -4.2
A41C A137G C149U	-2.44
A40U C85A U144A	-0.577
A40U C69U G84C G143C	≤ -4.2
A41G C76U G86A G117A	-0.646
A41C C93U C105U	-1.68
A41C G67A G81U G94C A107C	≤ -4.2
A40U G94U G136C	-4.02
A40G G81A G88C	≤ -4.2
A41U A120C C125A A142C	-4.12
A41C C43U C63U G88U	≤ -4.2
A41C G94C	-1.8
A41G G50C C85U C87A C103U C105G A115U	≤ -4.2
A41C C63U C76G C93A U127A	≤ -4.2
A41C C75U C87A U148A	≤ -4.2
A40U G68A C116A A137U	≤ -4.2
A40U A41C A49G C96A	-1.32

Variant	polymerase ribozyme fitness (log ratio)
A41C G48C C57U G84A	-2
A40U G50C A52G C85A U90C A97U	≤ -4.2
A40G C105U A115U A138G	≤ -4.2
A41C C96A	-0.56
A40G G86A C95U C103G C108U C125G	≤ -4.2
A41U C54G G88C U130A	≤ -4.2
A41C C93G	-3.5
A40U C85G	-1.32
A40U C85A	-1.44
A41U A52C A98U	-2.65
A41G U78C C116G	0.0342
A40U C99U G117C	-0.515
A41C G42C C43G G84U C95U C96G	≤ -4.2
A40U G92C U102C C103G A113G C132G U146C G152U	≤ -4.2
A40U G62A C131G G136A	-3.43
A41C C85G A113C	-4.19
A41C A120U	-0.45
A40U G50U G80A G126A C132G	≤ -4.2
A41G G50C C125U A142G	-3.92
A41G C51A G83A	-2.57
A41U A120G G143A	-2.06
A41C G152U	-2.69
A41C U56A A91G A97G A142U	-3.86
A41C A47C C96U C103U A115G	-3.11

Variant	polymerase ribozyme fitness (log ratio)
A41G C93A G124U	-1.5
A40U G68C C96U C105A	≤ -4.2
A41C C57U A89U G92C C116G C125A	≤ -4.2
A40U A91C A120C C129A U151A	≤ -4.2
A40U A47C A66C C76U C93A A98G C99G U104C A150U	≤ -4.2
A40U C114U G141C G152U	-3.44
A40U A41U A49U G59A C87G U146G	≤ -4.2
A41G C95U A122G C149A	≤ -4.2
A41C G59U C87U A120U A122C G124U U146C	-2.2
A41C G59C C75U G83C	-2.72
A41C U53C G81C C114A A115U C123G	≤ -4.2
A41C U134G	-2.46
A41C G58A G68A U104C A113C A147C	≤ -4.2
A40U G59C	0.561
A40U G50C G67C C103A C129G U144G	≤ -4.2
A40G C96U	-1.81
A40G G42U G74C	≤ -4.2
A40U A89C C114U	-2.95
A41G U44A U61C C75U A142C	≤ -4.2
A40G U56G C85A A115U U134C	-4.09
A40U C116A	0.309
A40U G68A	-4.03
A41G A47U C51U A52C G88A G136U	≤ -4.2
A41C G50C G83U C95A C99U C105G A137C	≤ -4.2

Variant	polymerase ribozyme fitness (log ratio)
A40U C114U	-2.19
A41C A52G G58A	-1.39
A40U C54U A97U C99U	-2.64
A40G C125G	-2.5
A40U C87U A89G	-3.2
A41C U56A C87U	-1.41
A41C G83A C116A	-0.205
A41C U55A G94A G112U U134A	≤ -4.2
A40G U55A C76G G81A G86U C149U	≤ -4.2
A41C C51A U56A G58C U82C C87A G136U	≤ -4.2
A41C G86U A89G G140A	≤ -4.2
A41C C87G G100C G126A A142C	≤ -4.2
A41U A89U C93U G117U A147U	-2.89
A40G G70C C85A	≤ -4.2
A40U A106G C131U	1.54
A41G C75G G92C U146A	≤ -4.2
A41G C54G G84A U148C	-3.53
A41C G50C G84A	≤ -4.2
A40U C57G C105A	-0.98
A40G G48U G58U C76A	≤ -4.2
A40U G58C A113C G124A	-2.93
A40G U77G G80A C93A A107G A120C A121U	≤ -4.2
A40U U61A C79A U104G	≤ -4.2
A40U U55A G86A G133U	≤ -4.2

Variant	polymerase ribozyme fitness (log ratio)
A41U A89U A91C	-3.97
A41U C54A G59A C85G	-3.6
A40U U55A U101C A120C	-0.406
A40U C54A A110G A120U	-4.07
A40U U61G C69U	-1.67
A41C A52C G70A C118U	≤ -4.2
A41C U82C	-1.14
A41C C87U A120C	-1.53
A40U C57A G86A A110U C125A G141U	≤ -4.2
A40U A60C	-1.31
A40U U55A G59A C79U U82G G83A G128A U139G G143A	≤ -4.2
A41C G50A A52C C54U U56A C75U C87U U146G A150G	≤ -4.2
A41C U55A G133A	≤ -4.2
A41G U104G C125G	-1.21
A41U A52G U55A C69A G86U	-3.96
A40G U45A A47C C99U A115C G124C	≤ -4.2
A40U C57G	0.32
A40G U56A	-1.21
A41C A113U C114A	≤ -4.2
A41C C54A U82G G94U	-3.5
A40U G84A	-0.341
A41C C85A C105G G126U	-3.3
A41C U61A C76A A91U C99A A110U A150C	≤ -4.2
A41G C51U A89C C95A U135C U148A	≤ -4.2

Variant	polymerase ribozyme fitness (log ratio)
A41C U56A C63A G83A	-0.629
A40U A137U G140C	-4.19
A41C C54A U56A A73U A89U U101G A115C C129G U134A	≤ -4.2
A41C G92U A98G C123G G133C U134A G152U	≤ -4.2
A40U A49C	≤ -4.2
A41C U61A A138U	-3.7
A40G G50U U56A G83C	-4.02
A41C C93U A97C U102G	≤ -4.2
A40U A97U C108U	≤ -4.2
A41G G42U A66U G74A U151G	≤ -4.2
A40U U82G G92A	-2.82
A41C C95U A119G	-0.978
A40U G86A G141A	-1.06
A41G G65A G143U	-3.42
A41U A66C G88A A113C G143A U146C	≤ -4.2
A41C C69A	-2.53
A41C U53C C125G U144A	-2.53
A41C G46U C76A U102A C131G	≤ -4.2
A40U G48C C69G C85U	-1.48
A40U G50C C85U	-2.29
A41C G80A C87A	≤ -4.2
A40U C57U A89C C99G A119G	-1.22
A41C C114U U127C	-3.96
A41C G50C U55A C85G	≤ -4.2

Variant	polymerase ribozyme fitness (log ratio)
A40U A52G G58C C75U G141U	-2.07
A41C C103A	-1.44
A41U A73U	-1.65
A41U A49G A52C G84A C103G A115U	≤ -4.2
A41U A91U G140A	≤ -4.2
A40G U53G A73G G81U G94A	≤ -4.2
A41C A47C U56A C85U	-1.41
A41G U53A U56C C76A A98G	-1.92
A41C C54U A110G	-2.74
A41C C63G G70C C85U A97C U144A	≤ -4.2
A40G U90G C95A G112C U127C	≤ -4.2
A41C G80C	-4.11
A41C A106C	-0.881
A41G G84U	-0.79
A41G A60G A97U	-0.347
A40U C57U C76A	-0.244
A41U C57U G80A	-1.12
A40U A47C A89U U134G	-2.3
A41G C54G G117U G124C	-1.19
A41C A137C	-3.61
A41C G88A G92A A115U U151G	≤ -4.2
A41C C116G	-0.175
A41C C85U A122U G126C	-0.655

From the RNAGym collection of RNA variant scans (doi:10.1073/pnas.2313332121)
